Patent US6987008B1, “Variant nucleoside-5′-phosphate producing enzyme” (priority 1999, dated 2006)
Values belong to the compound of their own block, whether it stands above or below them.

How the values were obtained:
[1] = target: T1, Escherichia blattae acid phosphatase (EB-AP), wild type, SEQ ID NO: 2 / 124 (Shimwellia blattae, UniProt Q9S1A6); assay: Km of inosine for wild-type EB-AP; format: biochemical
T1 sequence (Q9S1A6 21-249): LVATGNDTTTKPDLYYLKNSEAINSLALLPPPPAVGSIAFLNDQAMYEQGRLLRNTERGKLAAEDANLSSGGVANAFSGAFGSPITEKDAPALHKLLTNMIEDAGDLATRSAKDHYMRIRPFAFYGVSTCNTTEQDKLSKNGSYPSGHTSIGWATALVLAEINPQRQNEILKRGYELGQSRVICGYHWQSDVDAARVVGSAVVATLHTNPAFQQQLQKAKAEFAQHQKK

[2] = tested on: Nc1nc2c(ncn2[C@@H]2O[C@H](CO)[C@@H](O)[C@H]2O)c(=O)[nH]1; assay: Km for inosine and guanosine, transphosphorylation by EA-AP mutant of pENP180 (parent); format: biochemical, Enterobacter aerogenes IFO12010; conditions: other: transphosphorylation, 100 μmol/ml sodium pyrophosphate, pH 4.0, 30° C., 10 min, cell free extract, Hanes-Woolf
Description: (§1) As a gene for introducing a mutation, a plasmid pENP170 that contained a mutant EA-AP gene coding for L61Q/A63Q/E64A/N67D/S69A/G72D/T133K/E134D/I151T mutant EA-AP was used. pENP170 was prepared as follows.
(§2) As described above, a mutant gene was constructed, in which the nucleotide sequence of −10 region of the deduced promoter sequence located upstream from the coding region of the deduced acid phosphatase derived from Enterobacter aerogenes IFO12010 was changed from AAAAAT to TATAAT, which was the same as lac promoter of Escherichia coli. The plasmid containing this mutant gene was designated as pENP180.
(§3) Escherichia coli JM109/pENP180, Escherichia coli JM109/pENP320, Escherichia coli JM109/pENP340, Escherichia coli JM109/pENP410, Escherichia coli JM109/pENP510 and Escherichia coli JM109/pENP520, which were introduced with a plasmid containing each mutant acid phosphatase gene, were each inoculated to 50 ml of L medium containing 100 µg/ml of ampicillin and 1 mM of IPTG, and cultured at 37° C. for 16 hours. The cells were suspended in 50 mL of 100 mM potassium phosphate buffer (pH 7.0), and disrupted by sonication at 4° C. for 20 minutes. The cells were collected from each medium by centrifugation, and washed once with physiological saline. […] Km values for inosine and guanosine in the transphosphorylation reaction were measured by using each cell free extract. […]

[3] = tested on: OC[C@H]1O[C@@H](n2cnc3c(O)ncnc32)[C@H](O)[C@@H]1O; assay: as above; format: biochemical, Enterobacter aerogenes IFO12010; conditions: other: transphosphorylation, 100 μmol/ml sodium pyrophosphate, pH 4.0, 30° C., 10 min, cell free extract, Hanes-Woolf
Description: as §1, §2, §3

[4] = tested on: Nc1nc2c(ncn2[C@@H]2O[C@H](CO)[C@@H](O)[C@H]2O)c(=O)[nH]1; assay: Km for inosine and guanosine, transphosphorylation by EA-AP mutant of pENP410; format: biochemical, Enterobacter aerogenes IFO12010; conditions: other: transphosphorylation, 100 μmol/ml sodium pyrophosphate, pH 4.0, 30° C., 10 min, cell free extract, Hanes-Woolf
Excerpt: (§4) The mutations were introduced into the plasmid DNA by using Quick Change site-directed mutagenesis kit produced by Stratagene. Twenty kinds of oligonucleotides (Table 12) for introduction of mutation from MUT180 (SEQ ID NO: 101) to […] (SEQ ID NO: 120) were synthesized by using a DNA synthesizer (Model 394 produced by Applied Biosystem). The mutations were introduced according to the protocol of Stratagene by using pENP170 as the first template and MUT180 and MUT181 as oligonucleotides for introduction of mutation.
(§5) By using a plasmid introduced with a mutation as a new template, the same procedure was repeated to cumulatively introduce site-specific mutations. Plasmids were prepared from the transformants by the alkali lysis method, and their nucleotide sequences were determined to confirm that the target nucleotides were replaced. […]
as §3, with “hours.” for “hours. The cells were suspended in 50 mL of 100 mM potassium phosphate buffer (pH 7.0), and disrupted by sonication at 4° C. for 20 minutes. The cells were collected from each medium by centrifugation, and washed once with physiological saline.”

[5] = tested on: OC[C@H]1O[C@@H](n2cnc3c(O)ncnc32)[C@H](O)[C@@H]1O; assay: as above; format: biochemical, Enterobacter aerogenes IFO12010; conditions: other: transphosphorylation, 100 μmol/ml sodium pyrophosphate, pH 4.0, 30° C., 10 min, cell free extract, Hanes-Woolf
Excerpt: as §4, §5
as §3, with “hours.” for “hours. The cells were suspended in 50 mL of 100 mM potassium phosphate buffer (pH 7.0), and disrupted by sonication at 4° C. for 20 minutes. The cells were collected from each medium by centrifugation, and washed once with physiological saline.”

[6] = tested on: Nc1nc2c(ncn2[C@@H]2O[C@H](CO)[C@@H](O)[C@H]2O)c(=O)[nH]1; assay: Km for inosine and guanosine, transphosphorylation by EA-AP mutant of pENP520; format: biochemical, Enterobacter aerogenes IFO12010; conditions: other: transphosphorylation, 100 μmol/ml sodium pyrophosphate, pH 4.0, 30° C., 10 min, cell free extract, Hanes-Woolf
Excerpt: as §4, §5
as §3, with “hours.” for “hours. The cells were suspended in 50 mL of 100 mM potassium phosphate buffer (pH 7.0), and disrupted by sonication at 4° C. for 20 minutes. The cells were collected from each medium by centrifugation, and washed once with physiological saline.”

[7] = tested on: OC[C@H]1O[C@@H](n2cnc3c(O)ncnc32)[C@H](O)[C@@H]1O; assay: as above; format: biochemical, Enterobacter aerogenes IFO12010; conditions: other: transphosphorylation, 100 μmol/ml sodium pyrophosphate, pH 4.0, 30° C., 10 min, cell free extract, Hanes-Woolf
Excerpt: as §4, §5
as §3, with “hours.” for “hours. The cells were suspended in 50 mL of 100 mM potassium phosphate buffer (pH 7.0), and disrupted by sonication at 4° C. for 20 minutes. The cells were collected from each medium by centrifugation, and washed once with physiological saline.”

[8] = tested on: Nc1nc2c(ncn2[C@@H]2O[C@H](CO)[C@@H](O)[C@H]2O)c(=O)[nH]1; assay: Km for inosine and guanosine, transphosphorylation by EA-AP mutant of pENP510; format: biochemical, Enterobacter aerogenes IFO12010; conditions: other: transphosphorylation, 100 μmol/ml sodium pyrophosphate, pH 4.0, 30° C., 10 min, cell free extract, Hanes-Woolf
Excerpt: as §4, §5
as §3, with “hours.” for “hours. The cells were suspended in 50 mL of 100 mM potassium phosphate buffer (pH 7.0), and disrupted by sonication at 4° C. for 20 minutes. The cells were collected from each medium by centrifugation, and washed once with physiological saline.”

[9] = tested on: OC[C@H]1O[C@@H](n2cnc3c(O)ncnc32)[C@H](O)[C@@H]1O; assay: as above; format: biochemical, Enterobacter aerogenes IFO12010; conditions: other: transphosphorylation, 100 μmol/ml sodium pyrophosphate, pH 4.0, 30° C., 10 min, cell free extract, Hanes-Woolf
Excerpt: as §4, §5
as §3, with “hours.” for “hours. The cells were suspended in 50 mL of 100 mM potassium phosphate buffer (pH 7.0), and disrupted by sonication at 4° C. for 20 minutes. The cells were collected from each medium by centrifugation, and washed once with physiological saline.”

[10] = tested on: Nc1nc2c(ncn2[C@@H]2O[C@H](CO)[C@@H](O)[C@H]2O)c(=O)[nH]1; assay: Km for inosine and guanosine, transphosphorylation by EA-AP mutant of pENP340; format: biochemical, Enterobacter aerogenes IFO12010; conditions: other: transphosphorylation, 100 μmol/ml sodium pyrophosphate, pH 4.0, 30° C., 10 min, cell free extract, Hanes-Woolf
Excerpt: as §4, §5
as §3, with “hours.” for “hours. The cells were suspended in 50 mL of 100 mM potassium phosphate buffer (pH 7.0), and disrupted by sonication at 4° C. for 20 minutes. The cells were collected from each medium by centrifugation, and washed once with physiological saline.”

[11] = tested on: OC[C@H]1O[C@@H](n2cnc3c(O)ncnc32)[C@H](O)[C@@H]1O; assay: as above; format: biochemical, Enterobacter aerogenes IFO12010; conditions: other: transphosphorylation, 100 μmol/ml sodium pyrophosphate, pH 4.0, 30° C., 10 min, cell free extract, Hanes-Woolf
Excerpt: as §4, §5
as §3, with “hours.” for “hours. The cells were suspended in 50 mL of 100 mM potassium phosphate buffer (pH 7.0), and disrupted by sonication at 4° C. for 20 minutes. The cells were collected from each medium by centrifugation, and washed once with physiological saline.”

[12] = tested on: Nc1nc2c(ncn2[C@@H]2O[C@H](CO)[C@@H](O)[C@H]2O)c(=O)[nH]1; assay: Km for inosine and guanosine, transphosphorylation by EA-AP mutant of pENP320; format: biochemical, Enterobacter aerogenes IFO12010; conditions: other: transphosphorylation, 100 μmol/ml sodium pyrophosphate, pH 4.0, 30° C., 10 min, cell free extract, Hanes-Woolf
Excerpt: as §4, §5
as §3, with “hours.” for “hours. The cells were suspended in 50 mL of 100 mM potassium phosphate buffer (pH 7.0), and disrupted by sonication at 4° C. for 20 minutes. The cells were collected from each medium by centrifugation, and washed once with physiological saline.”

[13] = tested on: OC[C@H]1O[C@@H](n2cnc3c(O)ncnc32)[C@H](O)[C@@H]1O; assay: as above; format: biochemical, Enterobacter aerogenes IFO12010; conditions: other: transphosphorylation, 100 μmol/ml sodium pyrophosphate, pH 4.0, 30° C., 10 min, cell free extract, Hanes-Woolf
Excerpt: as §4, §5
as §3, with “hours.” for “hours. The cells were suspended in 50 mL of 100 mM potassium phosphate buffer (pH 7.0), and disrupted by sonication at 4° C. for 20 minutes. The cells were collected from each medium by centrifugation, and washed once with physiological saline.”

- Km [1]: > 100 mM
Compound: OC[C@H]1O[C@@H](n2cnc3c(O)ncnc32)[C@H](O)[C@@H]1O [inosine]

Compound: Enterobacter aerogenes IFO12010 acid phosphatase (EA-AP) mutant encoded by pENP180, L61Q/A63Q/E64A/N67D/S69A/G72D/T133K/E134D/I151T, SEQ ID NO: 10 (Klebsiella aerogenes KCTC 2190; A83Q/E154D/E84A/G92D/I171T/L81Q/N87D/S89A/T153K)
- Km [2]: 40 mM
- Km [3]: 40 mM

Compound: Enterobacter aerogenes IFO12010 acid phosphatase (EA-AP) mutant encoded by pENP410, L61Q/A63Q/E64A/N67D/S69A/A70V/G72D/T133K/E134D/T149A/I151S (parent SEQ ID NO: 10) (Klebsiella aerogenes KCTC 2190; A83Q/A90V/E154D/E84A/G92D/I171S/L81Q/N87D/S89A/T153K/T169A)
- Km [4]: 4.9 mM
- Km [5]: 18 mM

Compound: Enterobacter aerogenes IFO12010 acid phosphatase (EA-AP) mutant encoded by pENP520, L61Q/A63Q/E64A/N67D/S69A/A70K/G72D/T133K/E134D/T149G/I151S (parent SEQ ID NO: 10) (Klebsiella aerogenes KCTC 2190; A83Q/A90K/E154D/E84A/G92D/I171S/L81Q/N87D/S89A/T153K/T169G)
- Km [6]: 4.4 mM
- Km [7]: 46 mM

Compound: Enterobacter aerogenes IFO12010 acid phosphatase (EA-AP) mutant encoded by pENP510, L61Q/A63Q/E64A/N67D/S69A/A70E/G72D/T133K/E134D/T149G/I151S (parent SEQ ID NO: 10) (Klebsiella aerogenes KCTC 2190; A83Q/A90E/E154D/E84A/G92D/I171S/L81Q/N87D/S89A/T153K/T169G)
- Km [8]: 4.0 mM
- Km [9]: 17 mM

Compound: Enterobacter aerogenes IFO12010 acid phosphatase (EA-AP) mutant encoded by pENP340, L61Q/A63Q/E64A/N67D/S69A/A70V/G72D/E102Q/T133K/E134D/T149S/I151S as printed in Table 13 (parent SEQ ID NO: 10) (Klebsiella aerogenes KCTC 2190; A83Q/A90V/E122Q/E154D/E84A/G92D/I171S/L81Q/N87D/S89A/T153K/T169S)
- Km [10]: 5.1 mM
- Km [11]: 19 mM

Compound: Enterobacter aerogenes IFO12010 acid phosphatase (EA-AP) mutant encoded by pENP320, L61Q/A63Q/E64A/N67D/S69A/A70V/G72D/E102L/T133K/E134D/T149S/I151S (parent SEQ ID NO: 10) (Klebsiella aerogenes KCTC 2190; A83Q/A90V/E122L/E154D/E84A/G92D/I171S/L81Q/N87D/S89A/T153K/T169S)
- Km [12]: 4.6 mM
- Km [13]: 19 mM
